Measured values reported in PMC12689856, “A highly active Burkholderia polyketoacyl-CoA thiolase for production of triacetic acid lactone” (Nature Communications, 2025).

Tests used:
BktBbr [1] = target: T1, BktBbr (Burkholderia sp. RF2-non_BP3, UniProt Z9IDK7UI24, S254A); assay: coupled alpha-KGDH assay, TAL formation; format: biochemical; settings: acetoacetyl-CoA varied to 200 uM, acetyl-CoA fixed 200 uM; 22 °C
T1 construct: synthetic codon-optimised gene in pET-28a(+)-TEV (NdeI/XhoI), E. coli BL21(DE3), Ni-NTA; tetramer

BktBbr [2] = target: T2, BktBbr (Burkholderia sp. RF2-non_BP3, UniProt Z9IDK7UI24, G255A); assay: coupled alpha-KGDH assay, TAL formation; format: biochemical; settings: acetoacetyl-CoA varied to 200 uM, acetyl-CoA fixed 200 uM; 22 °C
T2 construct: synthetic codon-optimised gene in pET-28a(+)-TEV (NdeI/XhoI), E. coli BL21(DE3), Ni-NTA; tetramer

BktBbr [3] = target: T3, BktBbr (Burkholderia sp. RF2-non_BP3, UniProt Z9IDK7UI24); assay: X-ray crystal structure, soaked, […] Å; format: binding; settings: 20 mM ligand soak 3 h; CoA tunnel, water-mediated contacts; paper calls CoA esters covalent
T3 construct: synthetic codon-optimised gene in pET-28a(+)-TEV (NdeI/XhoI), E. coli BL21(DE3), Ni-NTA; tetramer

BktBbb = test system: T4, BktBbb; assay: coupled alpha-KGDH assay, NADH fluorescence; format: biochemical, Burkholderia sp. Bp8998; settings: acetyl-CoA as only substrate, 12.5-400 uM; 50 mM sodium phosphate, 3 mM EDTA, 1 mM DTT; 22 °C; 3 uM enzyme
T4 construct: gene bktB; synthetic codon-optimised gene in pET-28a(+)-TEV, E. coli BL21(DE3), Ni-NTA
Description: coupled alpha-KGDH assay, NADH fluorescence on BktBbb | Michaelis-Menten plot of all BktBs and 2-PS with only acetyl-CoA or malonyl-CoA

BktBbr [4] = target: T3, BktBbr; assay: X-ray crystal structure, soaked, […] Å; format: binding; settings: 20 mM ligand soak 3 h; active site and CoA tunnel; paper calls CoA esters covalent
BktBbr [5] = target: T3, BktBbr; assay: X-ray crystal structure, soaked, […] Å; format: binding; settings: 20 mM ligand soak 3 h; active site and CoA tunnel; paper calls CoA esters covalent; remark: listed apart in the source
[6] = test system: CC(=O)SCCNC(=O)CCNC(=O)[C@H](O)C(C)(C)COP(=O)(O)OP(=O)(O)OC[C@H]1O[C@@H](n2cnc3c(N)ncnc32)[C@H](O)[C@@H]1OP(=O)(O)O; assay: purified protein; settings: acetyl-CoA as only substrate, 12.5-400 uM, 50 mM sodium phosphate, 3 mM EDTA, 1 mM DTT, 22 °C, 3 uM enzyme
[7] = substrate: CC(=O)SCCNC(=O)CCNC(=O)[C@H](O)C(C)(C)COP(=O)(O)OP(=O)(O)OC[C@H]1O[C@@H](n2cnc3c(N)ncnc32)[C@H](O)[C@@H]1OP(=O)(O)O; assay: coupled alpha-KGDH assay, NADH fluorescence; format: biochemical, Cupriavidus necator; settings: acetyl-CoA as only substrate, 12.5-400 uM, 50 mM sodium phosphate, 3 mM EDTA, 1 mM DTT, 22 °C, 3 uM enzyme
Description: coupled alpha-KGDH assay, NADH fluorescence on BktBcn | BktBbr and BktBba have slightly higher kcat/KM than BktBcn and BktBcl

[8] = substrate: CC(C)(COP(=O)(O)OP(=O)(O)OC[C@H]1O[C@@H](n2cnc3c(N)ncnc32)[C@H](O)[C@@H]1OP(=O)(O)O)[C@@H](O)C(=O)NCCC(=O)NCCSC(=O)CC(=O)O; assay: coupled alpha-KGDH assay, NADH fluorescence; format: biochemical, Gerbera hybrid cultivar; settings: malonyl-CoA as only substrate, 12.5-400 uM, 22 °C
Description: coupled alpha-KGDH assay, NADH fluorescence on 2-PS | Michaelis-Menten plot of all BktBs and 2-PS with only acetyl-CoA or malonyl-CoA

For `CC(=O)CC(=O)SCCNC(=O)CCNC(=O)[C@H](O)C(C)(C)COP(=O)(O)OP(=O)(O)OC[C@H]1O[C@@H](n2cnc3c(N)ncnc32)[C@H](O)[C@@H]1OP(=O)(O)O` [acetoacetyl-CoA], the “coupled alpha-KGDH assay, TAL formation” value (BktBbr [1]) was “purified mutants of S254A and G251A exhibited overall better enzyme activity for TAL formation”, the “coupled alpha-KGDH assay, TAL formation” value (BktBbr [2]) was “while G255A performed comparably to the wild-type” and the “X-ray crystal structure, soaked, 2.4 Å” value (BktBbr [3]) was “Interaction of acetoacetyl-CoA with BktBbr through water molecules (PDB ID: 9BWP)”.

`CC(=O)SCCNC(=O)CCNC(=O)[C@H](O)C(C)(C)COP(=O)(O)OP(=O)(O)OC[C@H]1O[C@@H](n2cnc3c(N)ncnc32)[C@H](O)[C@@H]1OP(=O)(O)O` [acetyl-CoA] was tested, and the Km (BktBbb) was 43.3 ± 16.6 µM and the “X-ray crystal structure, soaked, 2.2 Å” value (BktBbr [4]) was “bound with acetyl-CoA, acetoacetyl-CoA, and butyryl-CoA (PDB IDs: 9BWO, 9BWP, 9BWL)”.

With `CCCC(=O)SCCNC(=O)CCNC(=O)[C@H](O)C(C)(C)COP(=O)(O)OP(=O)(O)OC[C@H]1O[C@@H](n2cnc3c(N)ncnc32)[C@H](O)[C@@H]1OP(=O)(O)O` [butyryl-CoA] the “X-ray crystal structure, soaked, 2.1 Å” value (BktBbr [5]) was “Binding of butyryl-CoA in the active site (PDB ID: 9BWL)”.

Molecule BktBbr (Burkholderia sp. RF2-non_BP3) has a Km [6] of 23.99 ± 13.47 µM, a kcat [6] of 1.203 ± 0.115 s⁻¹ and a kcat/Km [6] of 50200 ± 21000 M⁻¹ s⁻¹.

B1: BktBcn (Cupriavidus necator H16) (protein)
chain: MTREVVVVSGVRTAIGTFGGSLKDVAPAELGALVVREALARAQVSGDDVGHVVFGNVIQTEPRDMYLGRVAAVNGGVTINAPALTVNRLCGSGLQAIVSAAQTILLGDTDVAIGGGAESMSRAPYLAPAARWGARMGDAGLVDMMLGALHDPFHRIHMGVTAENVAKEYDISRAQQDEAALESHRRASAAIKAGYFKDQIVPVVSKGRKGDVTFDTDEHVRHDATIDDMTKLRPVFVKENGTVTAGNASGLNDAAAAVVMMERAEAERRGLKPLARLVSYGHAGVDPKAMGIGPVPATKIALERAGLQVSDLDVIEANEAFAAQACAVTKALGLDPAKVNPNGSGISLGHPIGATGALITVKALHELNRVQGRYALVTMCIGGGQGIAAIFERI
notes: synthetic codon-optimised gene in pET-28a(+)-TEV, E. coli BL21(DE3), Ni-NTA; tetramer
B1 was tested, and the Km [7] was 39.25 ± 20.43 µM, the kcat [7] was 1.41 ± 0.261 s⁻¹ and the kcat/Km [7] was 41500 ± 16200 M⁻¹ s⁻¹.

B2: 2-PS (Gerbera hybrid cultivar) (protein)
chain: MGSYSSDDVEVIREAGRAQGLATILAIGTATPPNCVAQADYADYYFRVTKSEHMVDLKEKFKRICEKTAIKKRYLALTEDYLQENPTMCEFMAPSLNARQDLVVTGVPMLGKEAAVKAIDEWGLPKSKITHLIFCTTAGVDMPGADYQLVKLLGLSPSVKRYMLYQQGCAAGGTVLRLAKDLAENNKGSRVLIVCSEITAILFHGPNENHLDSLVAQALFGDGAAALIVGSGPHLAVERPIFEIVSTDQTILPDTEKAMKLHLREGGLTFQLHRDVPLMVAKNIENAAEKALSPLGITDWNSVFWMVHPGGRAILDQVERKLNLKEDKLRASRHVLSEYGNLISACVLFIIDEVRKRSMAEGKSTTGEGLDCGVLFGFGPGMTVETVVLRSVRVTAAVANGN
notes: synthetic codon-optimised gene in pET-28a(+)-TEV, E. coli BL21(DE3), Ni-NTA
For B2, the Km [8] was 6.93 ± 1.34 µM, the kcat [8] was 0.9298 ± 0.0345 s⁻¹ and the kcat/Km [8] was 137000 ± 24800 M⁻¹ s⁻¹.
